For one molecule, Kd and IC50 results are on record in patent US20090238821A1 (Eli Lilly, published 2009).

The target in one experiment is T1, Amyloid-beta 1-42 (UniProt P05067 672-713).
T1 construct: domain: Amyloid-beta 1-42; Numbers 1-42 count on the Aβ peptide, not on the APP entry; also called Aβ42; Aβ1-42
Kind of experiment: BIAcore, essentially as in Example 15. On the technique in general: In SPR one partner is held on a chip, and binding of the other changes the refractive index at the surface.

Experiment [1] has as its target T2, β-amyloid peptide (1-42) conjugated to BSA (UniProt P05067 672-713, C-terminal Cys43 coupled to maleimide-activated bovine serum albumin).
T2 construct: domain: Aβ1-42; Coated on ELISA plates at 10 µg/mL; the carrier BSA is not written as a chain; also called Aβ1-42-BSA conjugate; Aβ1-42-Cys-BSA conjugate
Kind of experiment: competitive ELISA on Aβ1-42-BSA, competitor of biotinylated Mu266 (0.3 µg/ml), second set. The method, then:
(§1) The Aβ₁₋₄₂-BSA conjugate was prepared by dissolving 7.5 mg of Aβ₁₋₄₂-Cys₄₃(C-terminal cysteine Aβ₁₋₄₂, AnaSpec) in 500 μL of dimethylsulfoxide, and then immediately adding 1,500 μL of distilled water. Two (2) milligrams of maleimide-activated bovine serum albumin (Pierce) was dissolved in 200 μL of distilled water. The two solutions were combined, thoroughly mixed, and allowed to stand at room temperature for two (2) hours. A gel chromatography column was used to separate unreacted peptide from Aβ₁₋₄₂-Cys-BSA conjugate.
(§2) After washing the wells with phosphate buffered saline (PBS) containing 0.1% Tween 20 (Washing Buffer) using an ELISA plate washer, the wells were blocked by adding 300 μL of SuperBlock reagent (Pierce) per well. After 30 minutes of blocking, the wells were washed Washing Buffer and excess liquid was removed.
(§3) As a background control, 100 μl of ELISA Buffer was added. The ELISA plate was incubated at room temperature for 90 min. After washing the wells with Washing Buffer, 100 μl of 1 μg/ml HRP-conjugated streptavidin (Cat # 21124, Pierce) was added to each well. […] Absorbance was read at 415 nm. The absorbances were plotted against the log of the competitor concentration, curves were fit to the data points (using Prism) and the IC50 was determined for each antibody using methods well-known in the art.
In general terms: ELISA stands for enzyme-linked immunosorbent assay.

In experiment [2] the target is T2, β-amyloid peptide (1-42) conjugated to …. Kind of experiment: competitive ELISA on Aβ1-42-BSA, competitor of biotinylated Mu266 (0.3 µg/ml), first set. The method, then:
as §1, §2, §3

Method for Amyloid-beta 1-42: Antibody affinity (KD=Kd/Ka) was determined using a BIAcore biosensor 2000 and data analyzed with BIAevaluation (v. 3.1) software. A capture antibody (rabbit anti-mouse) was coupled via free amine groups to carboxyl groups on flow cell 2 of a biosensor chip (CM5) using N-ethyl-N-dimethylaminopropyl carbodiimide and N-hydroxysuccinimide (EDC/NHS). A non-specific rabbit IgG was coupled to flow cell 1 as a background control. Monoclonal antibodies were captured to yield 300 resonance units (RU). […] To regenerate the chip, bound anti-Aβ antibody was eluted from the chip using a wash with glycine-HCl (pH 2). A control injection containing no amyloid-beta served as a control for baseline subtraction.

B1: humanized 266 antibody (antibody, human IgG1, kappa, V domains shown)
VH: EVQLVESGGGLVQPGGSLRLSCAASGFTFSRYSMSWVRQAPGKGLELVAQINSVGNSTYYPDTVKGRFTISRDNAKNTLYLQMNSLRAEDTAVYYCASGDYWGQGTLVTVSS
VL: DVVMTQSPLSLPVTLGQPASISCRSSQSLIYSDGNAYLHWFLQKPGQSPRLLIYKVSNRFSGVPDRFSGSGSGTDFTLKISRVEAEDVGVYYCSQSTHVPWTFGQGTKVEIKR
notes: Mature antibody expressed from pVk-Hu266 and pVg1-Hu266 in Sp2/0 cells (clone 1D9), purified on protein A; human kappa and gamma 1 constant regions; also called Hu266
As for B1, in the experiment with Amyloid-beta 1-42, binding was put at a Kd of 4 pM. In addition, the figures for the IC50 in experiment [1] and in experiment [2] were 4 µg/mL and 7.5 µg/mL, respectively.

The Kd is the constant that tells how readily two partners part at equilibrium. Read a low Kd as tighter binding. For orientation: IC50 means the point on the concentration scale where inhibition reaches its midpoint. A lower IC50 goes with greater potency.
